Data on eight molecules can be found in publication PMC9747964 (Nature Communications, 2022).

Broadly, the stoichiometry N is the number of molecules, sites or subunits per partner or assembly. By koff is commonly meant the first-order rate constant of dissociation. A high value points to a short-lived complex.

Where “and” joins values, the source holds several entries; their conditions need not be identical. Identical values can stand only once.

Data set [1] deals with ComEAGs-OD (oligomerization domain of ComEAGs alone, codons 60-122) (Geobacillus stearothermophilus (ATCC 7953)). The data set can be described thus: AUC; sedimentation velocity, ComEAGs-OD at 12.7 μM, 37 krpm, 20 °C, 10 mM Tris pH 8, 100 mM KCl.
In data set [2] the target is ComEAGs (ComEA from Geobacillus stearothermophilus, codons 60-207) (Geobacillus stearothermophilus (ATCC 7953)). The data set can be described thus: AUC; sedimentation velocity, ComEAGs at 31.3 μM (280 nm), fitted to a discrete monomer-dimer equilibrium model (genetic algorithm Monte Carlo); dimer to monomers; apparent; 20 °C, 10 mM Tris pH 8, 100 mM KCl.
For data set [3] the target is unchanged. The data set can be described thus: AUC; sedimentation velocity, ComEAGs at 157 μM, 20 °C, 10 mM Tris pH 8, 100 mM KCl, 60 krpm.
For data set [4], the target named is T1, ComEAGs wild-type (Geobacillus stearothermophilus (ATCC …, UniProt A0A0K9HI54 60-207)).
T1 sequence: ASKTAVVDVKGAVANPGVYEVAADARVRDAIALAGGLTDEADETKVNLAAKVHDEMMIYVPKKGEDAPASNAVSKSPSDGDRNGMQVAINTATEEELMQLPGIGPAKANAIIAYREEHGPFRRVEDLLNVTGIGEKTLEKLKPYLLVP
The data set can be described thus: MW-AUC; 1.5 uM DNA, 5:1 and 10:1 protein:DNA; >90% DNA bound; ~3:1 complex, 3.9-4.0 S; MW-AUC: 10 mM Tris pH 8, 100 mM KCl, 20 C; EMSA: 10 mM Tris pH 8, 100 mM KCl, 2.5% glycerol, 0.5 mM EDTA, 1 mM MgCl2, room temperature 15 min, 8% native gel in. Conditions: protein: recombinant; blunt.

Data set [5] deals with the molecule itself. In words: crystal structure; ComEABs crystals, 22% PEG 500, 0.1 M succinate pH 5.5, 20 °C; 3.20 Å.
Data set [6] concerns the molecule itself. The data set can be described thus: AUC; sedimentation velocity of 31.3 uM ComEAGs, measured at 280 nm, 60 krpm, 20 °C, 10 mM Tris pH 8, 100 mM KCl; fitted to a discrete monomer-dimer reversibly self-associating model by genetic algorithm Monte Carlo analysis (96 iterations); dimer to monomers.
Data set [7] deals with the molecule itself. The data set can be described thus: AUC; sedimentation velocity of ComEAGs-OD at 196 uM, 37 krpm, 20 °C, 10 mM Tris pH 8, 100 mM KCl; molar mass distribution.
The target in data set [8] is T1, ComEAGs wild-type. In words: MW-AUC; 1.5 uM DNA, 10:1 protein:DNA; >90% DNA bound; ~7:1 complex, 8.1 S; MW-AUC: 10 mM Tris pH 8, 100 mM KCl, 20 C; EMSA: 10 mM Tris pH 8, 100 mM KCl, 2.5% glycerol, 0.5 mM EDTA, 1 mM MgCl2, room temperature 15 min, 8% native gel in. Conditions: protein: recombinant; blunt. For orientation: A gel shift assay detects complexes by their altered migration in electrophoresis.

Data set [9] concerns the target T1, ComEAGs wild-type. In words: EMSA; 0.5 uM DNA, 1 mM MgCl2; cooperative; MW-AUC: 10 mM Tris pH 8, 100 mM KCl, 20 C; EMSA: 10 mM Tris pH 8, 100 mM KCl, 2.5% glycerol, 0.5 mM EDTA, 1 mM MgCl2, room temperature 15 min, 8% native gel in. Conditions: protein: recombinant; blunt.

“ComEAGs-OD (oligomerization domain of ComEAGs alone, codons 60-122) (domain or fragment)” registered a stoichiometry N in data set [1] of 2.
Turning to “ComEAGs (ComEA from Geobacillus stearothermophilus, codons 60-207) (domain or fragment)”, the Kd in [2] was determined as 33.8 µM. Further, in data set [3], the Kd fell in the range of 10 to 160 µM and the stoichiometry N was determined as 2.

B1: EAGs14bp (dsDNA)
DNA 1: GTAGGACCATCTGC
DNA 2: GCAGATGGTCCTAC
Regarding B1, the binding result with ComEAGs wild-type [4] is given as “binds”.

B2: ComEABs (ComEA from Bacillus subtilis, codons 58-205) (domain or fragment, B. subtilis strain 168, UniProt P39694 58-205, looked up)
chain: SNETIVIDIKGAVQHPGVYEMRTGDRVSQAIEKAGGTSEQADEAQVNLAEILQDGTVVYIPKKGEETAVQQGGGGSVQSDGGKGALVNINTATLEELQGISGVGPSKAEAIIAYREENGRFQTIEDITKVSGIGEKSFEKIKSSITVK
notes: ComEA, Bacillus subtilis strain 168, codons 58-205 (lacks the N-terminal transmembrane region); source: E. coli BL21, purified (His-60 resin, Source 15Q, Superdex200); not shown: His6, C-terminal, kept
As for B2, the binding result in [5] was “binds”.

B3: ComEA from Geobacillus stearothermophilus, residues 60-207 (domain or fragment)
chain: ASKTAVVDVKGAVANPGVYEVAADARVRDAIALAGGLTDEADETKVNLAAKVHDEMMIYVPKKGEDAPASNAVSKSPSDGDRNGMQVAINTATEEELMQLPGIGPAKANAIIAYREEHGPFRRVEDLLNVTGIGEKTLEKLKPYLLVP
notes: ComEA, Geobacillus stearothermophilus (ATCC 7953), codons 60-207 (without the N-terminal transmembrane region); also called ComEAGs; wild-type ComEAGs; source: E. coli BL21(DE3), purified (His-60 Ni resin, Source 15Q, Hitrap Heparin, Superdex200); not shown: His-Sumo, N-terminal, cleaved
In data set [6], B3 came in with a koff of 5.27e-05 s⁻¹.

B4: ComEAGs oligomerization domain alone, residues 60-122 (domain or fragment, Geobacillus stearothermophilus)
chain: ASKTAVVDVKGAVANPGVYEVAADARVRDAIALAGGLTDEADETKVNLAAKVHDEMMIYVPKK
notes: ComEA, Geobacillus stearothermophilus (ATCC 7953), codons 60-122 (oligomerization domain); also called ComEAGs-OD; ComEA-OD; source: E. coli BL21(DE3), purified by the same protocol as wild-type ComEAGs; not shown: His-Sumo, N-terminal, cleaved
Take B4: the “stoichiometry N” value in data set [7] was 4 and > 4.

B5: EAGs40bp (dsDNA)
DNA 1: CGTTAGCACTGTGAATATCACTACAGCAACCTTAGAATCG
DNA 2: CGATTCTAAGGTTGCTGTAGTGATATTCACAGTGCTAACG
As to B5, the binding result with ComEAGs wild-type [8] is on record as “binds”.

B6: EAGs30bp (dsDNA)
DNA 1: GCACTGTGAATATCACTACAGCAACCTTAG
DNA 2: CTAAGGTTGCTGTAGTGATATTCACAGTGC
B6: the binding result in the data set with ComEAGs wild-type [9] is “binds”.
